Experimental data from US20030158389A1 (Genentech, published 2003).

T1: FcγRIIa α subunit ECD-6His-GST fusion protein (UniProt P12318 34-217)
T1 construct: not shown: glutathione S transferase (GST)
T1 sequence: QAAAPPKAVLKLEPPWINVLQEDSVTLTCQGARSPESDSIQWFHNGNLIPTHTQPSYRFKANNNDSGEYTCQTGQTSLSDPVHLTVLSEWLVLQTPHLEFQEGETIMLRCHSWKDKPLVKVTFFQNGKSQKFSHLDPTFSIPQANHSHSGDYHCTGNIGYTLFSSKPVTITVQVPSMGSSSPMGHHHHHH

T2: FcγRIIb α subunit ECD-6His-GST fusion protein (UniProt P31994 43-217)
T2 construct: not shown: glutathione S transferase (GST)
T2 sequence: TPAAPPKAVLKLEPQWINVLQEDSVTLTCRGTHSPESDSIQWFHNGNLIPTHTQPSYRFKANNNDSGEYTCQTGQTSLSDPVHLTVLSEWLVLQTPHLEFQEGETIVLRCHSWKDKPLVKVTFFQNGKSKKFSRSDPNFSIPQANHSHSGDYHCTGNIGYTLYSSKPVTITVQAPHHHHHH


Legend:
[1] = biological target: T3, FcγRI α subunit-GST fusion (UniProt P12314 16-292); assay: ELISA, monomeric IgG on coated FcγRI α subunit-GST
T3 construct: not shown: glutathione S transferase (GST)
T3 sequence (P12314 other isoform, or with tags, fused parts or gaps, form in doubt): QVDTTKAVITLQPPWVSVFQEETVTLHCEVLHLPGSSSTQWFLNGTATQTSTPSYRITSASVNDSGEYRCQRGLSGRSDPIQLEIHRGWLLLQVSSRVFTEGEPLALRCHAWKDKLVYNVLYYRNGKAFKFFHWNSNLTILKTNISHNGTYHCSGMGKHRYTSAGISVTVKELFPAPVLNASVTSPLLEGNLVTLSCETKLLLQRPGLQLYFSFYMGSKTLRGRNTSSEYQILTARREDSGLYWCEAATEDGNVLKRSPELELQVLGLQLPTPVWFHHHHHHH

[2] = biological target: T1, FcγRIIa α subunit ECD-6His-GST fusion …; assay: ELISA, E27:chimeric IgE:VEGF immune complex on coated receptor ECD-6His-GST
[3] = biological target: T2, FcγRIIb α subunit ECD-6His-GST fusion …; assay: as above
[4] = biological target: T4, FcγRIIIa α subunit ECD-6His-GST fusion protein (UniProt P08637 17-208); assay: as above
T4 construct: not shown: glutathione S transferase (GST)
T4 sequence (P08637 other isoform, or with tags, fused parts or gaps, form in doubt): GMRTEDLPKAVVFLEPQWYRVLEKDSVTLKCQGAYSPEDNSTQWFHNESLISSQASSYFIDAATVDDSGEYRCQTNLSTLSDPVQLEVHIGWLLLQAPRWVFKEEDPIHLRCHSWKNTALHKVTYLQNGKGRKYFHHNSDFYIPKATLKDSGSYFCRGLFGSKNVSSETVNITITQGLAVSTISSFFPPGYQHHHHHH

Binder | binding as percentage of the wild type [1] | binding as percentage of the wild type [2] | binding as percentage of the wild type [3] | binding as percentage of the wild type [4]
E27 anti-IgE antibody, wild type (humanized IgG1) (antibody, In the FcγRII and FcγRIII ELISAs it stood as an immune complex E27:chimeric IgE:VEGF (1:1:2); also called wt; recombinant anti-IgE E27) heavy: not shown light: DIQLTQSPSSLSASVGDRVTITCRASKPVDGEGDSYMNWYQQKPGKAPKLLIYAASYLESGVPSRFSGSGSGTDFTLTISSLQPEDFATYYCQQSHEDPYTFGQGTKVEIKRTVAAPSVFIFPPSDEQLKSGTASVVCLLNNFYPREAKVQWKVDNALQSGNSQESVTEQDSKDSTYSLSSTLTLSKADYEKHKVYACEVTHQGLSSPVTKSFNRGEC | 100% | 100% | 100% | 100%
E27 anti-IgE antibody mutant K322A (antibody, also called K322A (E27 background)) heavy: not shown light: DIQLTQSPSSLSASVGDRVTITCRASKPVDGEGDSYMNWYQQKPGKAPKLLIYAASYLESGVPSRFSGSGSGTDFTLTISSLQPEDFATYYCQQSHEDPYTFGQGTKVEIKRTVAAPSVFIFPPSDEQLKSGTASVVCLLNNFYPREAKVQWKVDNALQSGNSQESVTEQDSKDSTYSLSSTLTLSKADYEKHKVYACEVTHQGLSSPVTKSFNRGEC | 90% | 109% | 101% | 90%
E27 anti-IgE antibody mutant P329A (antibody, also called P329A (E27 background)) heavy: not shown light: DIQLTQSPSSLSASVGDRVTITCRASKPVDGEGDSYMNWYQQKPGKAPKLLIYAASYLESGVPSRFSGSGSGTDFTLTISSLQPEDFATYYCQQSHEDPYTFGQGTKVEIKRTVAAPSVFIFPPSDEQLKSGTASVVCLLNNFYPREAKVQWKVDNALQSGNSQESVTEQDSKDSTYSLSSTLTLSKADYEKHKVYACEVTHQGLSSPVTKSFNRGEC | 104% | 111% | 96% | 85%
E27 anti-IgE antibody mutant K320A (antibody, also called K320A (E27 background)) heavy: not shown light: DIQLTQSPSSLSASVGDRVTITCRASKPVDGEGDSYMNWYQQKPGKAPKLLIYAASYLESGVPSRFSGSGSGTDFTLTISSLQPEDFATYYCQQSHEDPYTFGQGTKVEIKRTVAAPSVFIFPPSDEQLKSGTASVVCLLNNFYPREAKVQWKVDNALQSGNSQESVTEQDSKDSTYSLSSTLTLSKADYEKHKVYACEVTHQGLSSPVTKSFNRGEC | 102% | 94% | 83% | 72%
E27 anti-IgE antibody mutant E318A (antibody, also called E318A (E27 background)) heavy: not shown light: DIQLTQSPSSLSASVGDRVTITCRASKPVDGEGDSYMNWYQQKPGKAPKLLIYAASYLESGVPSRFSGSGSGTDFTLTISSLQPEDFATYYCQQSHEDPYTFGQGTKVEIKRTVAAPSVFIFPPSDEQLKSGTASVVCLLNNFYPREAKVQWKVDNALQSGNSQESVTEQDSKDSTYSLSSTLTLSKADYEKHKVYACEVTHQGLSSPVTKSFNRGEC | 93% | 113% | 106% | 104%
E27 anti-IgE antibody mutant P331A (antibody, also called P331A (E27 background)) heavy: not shown light: DIQLTQSPSSLSASVGDRVTITCRASKPVDGEGDSYMNWYQQKPGKAPKLLIYAASYLESGVPSRFSGSGSGTDFTLTISSLQPEDFATYYCQQSHEDPYTFGQGTKVEIKRTVAAPSVFIFPPSDEQLKSGTASVVCLLNNFYPREAKVQWKVDNALQSGNSQESVTEQDSKDSTYSLSSTLTLSKADYEKHKVYACEVTHQGLSSPVTKSFNRGEC | 74% | 86% | 58% | 73%
